Test results as given in patent US20190225650A1, “PEPTIDOMIMETIC MACROCYCLES AND USE THEREOF IN REGULATING HIF1ALPHA” (AILERON THERAPEUTICS, INC., priority 2013, published 2019).
Bridge positions count the residues as written; N and C are the ends. Square brackets hold non-standard residues; d marks the D form. S5 = C=CCCC[C@](C)(N)C(=O)O; Nle = CCCC[C@H](N)C(=O)O; Dap = NC[C@H](N)C(=O)O

B1: SP-63 (peptide)
peptide: Ac-FIDE[Dap]VL[Nle][S5]LVI[S5][Nle]ALDRI-NH2
modifications: staple 9-13
SMILES: CCCC[C@H](NC(=O)[C@H](CC(C)C)NC(=O)[C@@H](NC(=O)[C@H](CN)NC(=O)[C@H](CCC(=O)O)NC(=O)[C@H](CC(=O)O)NC(=O)[C@@H](NC(=O)[C@H](Cc1ccccc1)NC(C)=O)[C@@H](C)CC)C(C)C)C(=O)N[C@@]1(C)CCCC=CCCC[C@@](C)(C(=O)N[C@@H](CCCC)C(=O)N[C@@H](C)C(=O)N[C@@H](CC(C)C)C(=O)N[C@@H](CC(=O)O)C(=O)N[C@@H](CCCNC(=N)N)C(=O)N[C@H](C(N)=O)[C@@H](C)CC)NC(=O)[C@H]([C@@H](C)CC)NC(=O)[C@H](C(C)C)NC(=O)[C@H](CC(C)C)NC1=O
B2: SP-50 (peptide)
peptide: Ac-FIDEEVLS[S5]LVI[S5][Nle]ALDRI-NH2
modifications: staple 9-13
SMILES: CCCC[C@H](NC(=O)[C@]1(C)CCCC=CCCC[C@](C)(NC(=O)[C@H](CO)NC(=O)[C@H](CC(C)C)NC(=O)[C@@H](NC(=O)[C@H](CCC(=O)O)NC(=O)[C@H](CCC(=O)O)NC(=O)[C@H](CC(=O)O)NC(=O)[C@@H](NC(=O)[C@H](Cc2ccccc2)NC(C)=O)[C@@H](C)CC)C(C)C)C(=O)N[C@@H](CC(C)C)C(=O)N[C@@H](C(C)C)C(=O)N[C@@H]([C@@H](C)CC)C(=O)N1)C(=O)N[C@@H](C)C(=O)N[C@@H](CC(C)C)C(=O)N[C@@H](CC(=O)O)C(=O)N[C@@H](CCCNC(=N)N)C(=O)N[C@H](C(N)=O)[C@@H](C)CC
B3: SP-64 (peptide)
peptide: Ac-FIDEE[Dap]L[Nle][S5]LVI[S5][Nle]ALDRI-NH2
modifications: staple 9-13
SMILES: CCCC[C@H](NC(=O)[C@H](CC(C)C)NC(=O)[C@H](CN)NC(=O)[C@H](CCC(=O)O)NC(=O)[C@H](CCC(=O)O)NC(=O)[C@H](CC(=O)O)NC(=O)[C@@H](NC(=O)[C@H](Cc1ccccc1)NC(C)=O)[C@@H](C)CC)C(=O)N[C@@]1(C)CCCC=CCCC[C@@](C)(C(=O)N[C@@H](CCCC)C(=O)N[C@@H](C)C(=O)N[C@@H](CC(C)C)C(=O)N[C@@H](CC(=O)O)C(=O)N[C@@H](CCCNC(=N)N)C(=O)N[C@H](C(N)=O)[C@@H](C)CC)NC(=O)[C@H]([C@@H](C)CC)NC(=O)[C@H](C(C)C)NC(=O)[C@H](CC(C)C)NC1=O
B4: SP-62 (peptide)
peptide: Ac-FI[Dap]EEVL[Nle][S5]LVI[S5][Nle]ALDRI-NH2
modifications: staple 9-13
SMILES: CCCC[C@H](NC(=O)[C@H](CC(C)C)NC(=O)[C@@H](NC(=O)[C@H](CCC(=O)O)NC(=O)[C@H](CCC(=O)O)NC(=O)[C@H](CN)NC(=O)[C@@H](NC(=O)[C@H](Cc1ccccc1)NC(C)=O)[C@@H](C)CC)C(C)C)C(=O)N[C@@]1(C)CCCC=CCCC[C@@](C)(C(=O)N[C@@H](CCCC)C(=O)N[C@@H](C)C(=O)N[C@@H](CC(C)C)C(=O)N[C@@H](CC(=O)O)C(=O)N[C@@H](CCCNC(=N)N)C(=O)N[C@H](C(N)=O)[C@@H](C)CC)NC(=O)[C@H]([C@@H](C)CC)NC(=O)[C@H](C(C)C)NC(=O)[C@H](CC(C)C)NC1=O
B5: SP-52 (peptide)
peptide: Ac-FIDEEVL[Nle][S5]LSI[S5][Nle]ALDRI-NH2
modifications: staple 9-13
SMILES: CCCC[C@H](NC(=O)[C@H](CC(C)C)NC(=O)[C@@H](NC(=O)[C@H](CCC(=O)O)NC(=O)[C@H](CCC(=O)O)NC(=O)[C@H](CC(=O)O)NC(=O)[C@@H](NC(=O)[C@H](Cc1ccccc1)NC(C)=O)[C@@H](C)CC)C(C)C)C(=O)N[C@@]1(C)CCCC=CCCC[C@@](C)(C(=O)N[C@@H](CCCC)C(=O)N[C@@H](C)C(=O)N[C@@H](CC(C)C)C(=O)N[C@@H](CC(=O)O)C(=O)N[C@@H](CCCNC(=N)N)C(=O)N[C@H](C(N)=O)[C@@H](C)CC)NC(=O)[C@H]([C@@H](C)CC)NC(=O)[C@H](CO)NC(=O)[C@H](CC(C)C)NC1=O
B6: SP-58 (peptide)
peptide: Ac-FIDEEVL[Nle][S5]LVI[S5][Nle]ALDSI-NH2
modifications: staple 9-13
SMILES: CCCC[C@H](NC(=O)[C@H](CC(C)C)NC(=O)[C@@H](NC(=O)[C@H](CCC(=O)O)NC(=O)[C@H](CCC(=O)O)NC(=O)[C@H](CC(=O)O)NC(=O)[C@@H](NC(=O)[C@H](Cc1ccccc1)NC(C)=O)[C@@H](C)CC)C(C)C)C(=O)N[C@@]1(C)CCCC=CCCC[C@@](C)(C(=O)N[C@@H](CCCC)C(=O)N[C@@H](C)C(=O)N[C@@H](CC(C)C)C(=O)N[C@@H](CC(=O)O)C(=O)N[C@@H](CO)C(=O)N[C@H](C(N)=O)[C@@H](C)CC)NC(=O)[C@H]([C@@H](C)CC)NC(=O)[C@H](C(C)C)NC(=O)[C@H](CC(C)C)NC1=O
B7: SP-69 (peptide)
peptide: Ac-FIDEQVL[Nle][S5]LVI[S5][Nle]ALDRI-NH2
modifications: staple 9-13
SMILES: CCCC[C@H](NC(=O)[C@H](CC(C)C)NC(=O)[C@@H](NC(=O)[C@H](CCC(N)=O)NC(=O)[C@H](CCC(=O)O)NC(=O)[C@H](CC(=O)O)NC(=O)[C@@H](NC(=O)[C@H](Cc1ccccc1)NC(C)=O)[C@@H](C)CC)C(C)C)C(=O)N[C@@]1(C)CCCC=CCCC[C@@](C)(C(=O)N[C@@H](CCCC)C(=O)N[C@@H](C)C(=O)N[C@@H](CC(C)C)C(=O)N[C@@H](CC(=O)O)C(=O)N[C@@H](CCCNC(=N)N)C(=O)N[C@H](C(N)=O)[C@@H](C)CC)NC(=O)[C@H]([C@@H](C)CC)NC(=O)[C@H](C(C)C)NC(=O)[C@H](CC(C)C)NC1=O
B8: SP-68 (peptide)
peptide: Ac-FIDEEVL[Nle][S5]LVI[S5][Nle]ALD[Dap]-NH2
modifications: staple 9-13
SMILES: CCCC[C@H](NC(=O)[C@H](CC(C)C)NC(=O)[C@@H](NC(=O)[C@H](CCC(=O)O)NC(=O)[C@H](CCC(=O)O)NC(=O)[C@H](CC(=O)O)NC(=O)[C@@H](NC(=O)[C@H](Cc1ccccc1)NC(C)=O)[C@@H](C)CC)C(C)C)C(=O)N[C@@]1(C)CCCC=CCCC[C@@](C)(C(=O)N[C@@H](CCCC)C(=O)N[C@@H](C)C(=O)N[C@@H](CC(C)C)C(=O)N[C@@H](CC(=O)O)C(=O)N[C@@H](CN)C(N)=O)NC(=O)[C@H]([C@@H](C)CC)NC(=O)[C@H](C(C)C)NC(=O)[C@H](CC(C)C)NC1=O
B9: SP-60 (peptide)
peptide: Ac-FIDEEVLA[S5]LVI[S5]AALD-NH2
modifications: staple 9-13
SMILES: CC[C@H](C)[C@H](NC(=O)[C@H](Cc1ccccc1)NC(C)=O)C(=O)N[C@@H](CC(=O)O)C(=O)N[C@@H](CCC(=O)O)C(=O)N[C@@H](CCC(=O)O)C(=O)N[C@H](C(=O)N[C@@H](CC(C)C)C(=O)N[C@@H](C)C(=O)N[C@@]1(C)CCCC=CCCC[C@@](C)(C(=O)N[C@@H](C)C(=O)N[C@@H](C)C(=O)N[C@@H](CC(C)C)C(=O)N[C@@H](CC(=O)O)C(N)=O)NC(=O)[C@H]([C@@H](C)CC)NC(=O)[C@H](C(C)C)NC(=O)[C@H](CC(C)C)NC1=O)C(C)C

Target: T1, His6-tagged p300 (AA 323-423) (UniProt Q09472 323-423)
T1 construct: range 323-423; also called p300-CH; not shown: His6 tag
Test: TR-FRET HIF1a/p300 displacement; grade = IC50 >700 nM
Summary of the method: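 Competitor peptides were added to the HIF1α CTAD/p300 complex (300 nM final) in 150 mM NaCl, 20 mM HEPES pH 7.4, 7.5 mM CHAPS and 1 mM DTT for 1 h at room temperature. Anti-Flag-K (0.5 μM) and anti-6×His-D2 (4 nM) then followed for 2 h. IC50 came from a one-site logIC50 fit of the donor/acceptor ratio.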

T1 sequence (Q09472 323-423 limits assumed): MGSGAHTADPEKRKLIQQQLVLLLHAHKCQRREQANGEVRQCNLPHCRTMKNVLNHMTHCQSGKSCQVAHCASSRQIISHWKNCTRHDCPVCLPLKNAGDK

IC50, > 0.7 µM:
B1, B2, B3, B4, B5, B6, B7, B8, B9
